Test [1] deals with human glucagon-like peptide 1 receptor (GLP-1R) (human, UniProt P43220). Briefly: cell-based or functional assay.
The target of test [2] is T1, human GLP-2 receptor (hGLP2-R) (human, UniProt O95838).
T1 sequence: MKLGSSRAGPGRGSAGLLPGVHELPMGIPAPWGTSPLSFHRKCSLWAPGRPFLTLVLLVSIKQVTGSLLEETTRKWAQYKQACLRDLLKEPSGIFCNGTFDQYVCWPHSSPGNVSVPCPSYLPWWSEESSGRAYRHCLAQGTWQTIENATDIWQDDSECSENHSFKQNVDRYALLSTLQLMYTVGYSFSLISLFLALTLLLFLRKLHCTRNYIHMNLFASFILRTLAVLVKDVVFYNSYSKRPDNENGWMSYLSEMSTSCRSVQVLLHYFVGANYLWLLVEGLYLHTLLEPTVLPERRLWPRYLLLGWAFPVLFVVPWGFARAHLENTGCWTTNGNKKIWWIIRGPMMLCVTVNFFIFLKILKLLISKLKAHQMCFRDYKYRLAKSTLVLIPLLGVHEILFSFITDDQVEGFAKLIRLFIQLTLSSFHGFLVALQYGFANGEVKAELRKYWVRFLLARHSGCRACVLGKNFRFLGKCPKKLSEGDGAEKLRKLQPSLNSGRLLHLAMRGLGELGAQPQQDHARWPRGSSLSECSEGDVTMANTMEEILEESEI
Briefly: cell-based or functional assay.

Data on 7 molecules can be found in patent US11130793B2, “GLP-1/GLP-2 dual agonists” (Zealand Pharma A/S, priority 2016, dated 2021).

Square brackets hold non-standard residues; d marks the D form. Aib = CC(C)(N)C(=O)O

B1: Compound 21 (peptide)
peptide: H-H[Aib]EGTFTSELATILDEQAARDFIAWLHQHKITD-OH
SMILES: CC[C@H](C)[C@H](NC(=O)[C@H](Cc1ccccc1)NC(=O)[C@H](CC(=O)O)NC(=O)[C@H](CCCNC(=N)N)NC(=O)[C@H](C)NC(=O)[C@H](C)NC(=O)[C@H](CCC(N)=O)NC(=O)[C@H](CCC(=O)O)NC(=O)[C@H](CC(=O)O)NC(=O)[C@H](CC(C)C)NC(=O)[C@@H](NC(=O)[C@@H](NC(=O)[C@H](C)NC(=O)[C@H](CC(C)C)NC(=O)[C@H](CCC(=O)O)NC(=O)[C@H](CO)NC(=O)[C@@H](NC(=O)[C@H](Cc1ccccc1)NC(=O)[C@@H](NC(=O)CNC(=O)[C@H](CCC(=O)O)NC(=O)C(C)(C)NC(=O)[C@@H](N)Cc1c[nH]cn1)[C@@H](C)O)[C@@H](C)O)[C@@H](C)O)[C@@H](C)CC)C(=O)N[C@@H](C)C(=O)N[C@@H](Cc1c[nH]c2ccccc12)C(=O)N[C@@H](CC(C)C)C(=O)N[C@@H](Cc1c[nH]cn1)C(=O)N[C@@H](CCC(N)=O)C(=O)N[C@@H](Cc1c[nH]cn1)C(=O)N[C@@H](CCCCN)C(=O)N[C@H](C(=O)N[C@H](C(=O)N[C@@H](CC(=O)O)C(=O)O)[C@@H](C)O)[C@@H](C)CC
With B1, the “EC50 GLP-1 (nM); cAMP AlphaScreen” value in test [1] came to 0.049 nM. In addition, in test [2], the “EC50 GLP-2 (nM); cAMP AlphaScreen” value was determined as 0.11 nM.

B2: Compound 20 (peptide)
peptide: H-H[Aib]EGTFTSELATILDEQAARDFIAWLIAYKITD-OH
SMILES: CC[C@H](C)[C@H](NC(=O)[C@H](CC(C)C)NC(=O)[C@H](Cc1c[nH]c2ccccc12)NC(=O)[C@H](C)NC(=O)[C@@H](NC(=O)[C@H](Cc1ccccc1)NC(=O)[C@H](CC(=O)O)NC(=O)[C@H](CCCNC(=N)N)NC(=O)[C@H](C)NC(=O)[C@H](C)NC(=O)[C@H](CCC(N)=O)NC(=O)[C@H](CCC(=O)O)NC(=O)[C@H](CC(=O)O)NC(=O)[C@H](CC(C)C)NC(=O)[C@@H](NC(=O)[C@@H](NC(=O)[C@H](C)NC(=O)[C@H](CC(C)C)NC(=O)[C@H](CCC(=O)O)NC(=O)[C@H](CO)NC(=O)[C@@H](NC(=O)[C@H](Cc1ccccc1)NC(=O)[C@@H](NC(=O)CNC(=O)[C@H](CCC(=O)O)NC(=O)C(C)(C)NC(=O)[C@@H](N)Cc1c[nH]cn1)[C@@H](C)O)[C@@H](C)O)[C@@H](C)O)[C@@H](C)CC)[C@@H](C)CC)C(=O)N[C@@H](C)C(=O)N[C@@H](Cc1ccc(O)cc1)C(=O)N[C@@H](CCCCN)C(=O)N[C@H](C(=O)N[C@H](C(=O)N[C@@H](CC(=O)O)C(=O)O)[C@@H](C)O)[C@@H](C)CC
Take B2: the “EC50 GLP-1 (nM); cAMP AlphaScreen” value in test [1] turned out to be 0.012 nM. Further, in test [2], the “EC50 GLP-2 (nM); cAMP AlphaScreen” value was 0.26 nM.

B3: Compound 22 (peptide)
peptide: H-H[Aib]EGSFTSELATILDEQAARDFIAWLHAHKITD-OH
SMILES: CC[C@H](C)[C@H](NC(=O)[C@H](Cc1ccccc1)NC(=O)[C@H](CC(=O)O)NC(=O)[C@H](CCCNC(=N)N)NC(=O)[C@H](C)NC(=O)[C@H](C)NC(=O)[C@H](CCC(N)=O)NC(=O)[C@H](CCC(=O)O)NC(=O)[C@H](CC(=O)O)NC(=O)[C@H](CC(C)C)NC(=O)[C@@H](NC(=O)[C@@H](NC(=O)[C@H](C)NC(=O)[C@H](CC(C)C)NC(=O)[C@H](CCC(=O)O)NC(=O)[C@H](CO)NC(=O)[C@@H](NC(=O)[C@H](Cc1ccccc1)NC(=O)[C@H](CO)NC(=O)CNC(=O)[C@H](CCC(=O)O)NC(=O)C(C)(C)NC(=O)[C@@H](N)Cc1c[nH]cn1)[C@@H](C)O)[C@@H](C)O)[C@@H](C)CC)C(=O)N[C@@H](C)C(=O)N[C@@H](Cc1c[nH]c2ccccc12)C(=O)N[C@@H](CC(C)C)C(=O)N[C@@H](Cc1c[nH]cn1)C(=O)N[C@@H](C)C(=O)N[C@@H](Cc1c[nH]cn1)C(=O)N[C@@H](CCCCN)C(=O)N[C@H](C(=O)N[C@H](C(=O)N[C@@H](CC(=O)O)C(=O)O)[C@@H](C)O)[C@@H](C)CC
On to B3, for which the “EC50 GLP-1 (nM); cAMP AlphaScreen” value in test [1] was determined as 0.28 nM. The “EC50 GLP-2 (nM); cAMP AlphaScreen” value in test [2] turned out to be 0.042 nM.

B4: Compound 19 (peptide)
peptide: H-H[Aib]EGTFTSELATILDEQAARDFIAWLIAQKITD-OH
SMILES: CC[C@H](C)[C@H](NC(=O)[C@H](CC(C)C)NC(=O)[C@H](Cc1c[nH]c2ccccc12)NC(=O)[C@H](C)NC(=O)[C@@H](NC(=O)[C@H](Cc1ccccc1)NC(=O)[C@H](CC(=O)O)NC(=O)[C@H](CCCNC(=N)N)NC(=O)[C@H](C)NC(=O)[C@H](C)NC(=O)[C@H](CCC(N)=O)NC(=O)[C@H](CCC(=O)O)NC(=O)[C@H](CC(=O)O)NC(=O)[C@H](CC(C)C)NC(=O)[C@@H](NC(=O)[C@@H](NC(=O)[C@H](C)NC(=O)[C@H](CC(C)C)NC(=O)[C@H](CCC(=O)O)NC(=O)[C@H](CO)NC(=O)[C@@H](NC(=O)[C@H](Cc1ccccc1)NC(=O)[C@@H](NC(=O)CNC(=O)[C@H](CCC(=O)O)NC(=O)C(C)(C)NC(=O)[C@@H](N)Cc1c[nH]cn1)[C@@H](C)O)[C@@H](C)O)[C@@H](C)O)[C@@H](C)CC)[C@@H](C)CC)C(=O)N[C@@H](C)C(=O)N[C@@H](CCC(N)=O)C(=O)N[C@@H](CCCCN)C(=O)N[C@H](C(=O)N[C@H](C(=O)N[C@@H](CC(=O)O)C(=O)O)[C@@H](C)O)[C@@H](C)CC
For B4, in test [1], the “EC50 GLP-1 (nM); cAMP AlphaScreen” value worked out at 0.005 nM. The “EC50 GLP-2 (nM); cAMP AlphaScreen” value in test [2] amounted to 0.15 nM.

B5: Compound 23 (peptide)
peptide: H-H[Aib]EGSFTSELATILDEQAARDFIAWLYEHKITD-OH
SMILES: CC[C@H](C)[C@H](NC(=O)[C@H](Cc1ccccc1)NC(=O)[C@H](CC(=O)O)NC(=O)[C@H](CCCNC(=N)N)NC(=O)[C@H](C)NC(=O)[C@H](C)NC(=O)[C@H](CCC(N)=O)NC(=O)[C@H](CCC(=O)O)NC(=O)[C@H](CC(=O)O)NC(=O)[C@H](CC(C)C)NC(=O)[C@@H](NC(=O)[C@@H](NC(=O)[C@H](C)NC(=O)[C@H](CC(C)C)NC(=O)[C@H](CCC(=O)O)NC(=O)[C@H](CO)NC(=O)[C@@H](NC(=O)[C@H](Cc1ccccc1)NC(=O)[C@H](CO)NC(=O)CNC(=O)[C@H](CCC(=O)O)NC(=O)C(C)(C)NC(=O)[C@@H](N)Cc1c[nH]cn1)[C@@H](C)O)[C@@H](C)O)[C@@H](C)CC)C(=O)N[C@@H](C)C(=O)N[C@@H](Cc1c[nH]c2ccccc12)C(=O)N[C@@H](CC(C)C)C(=O)N[C@@H](Cc1ccc(O)cc1)C(=O)N[C@@H](CCC(=O)O)C(=O)N[C@@H](Cc1c[nH]cn1)C(=O)N[C@@H](CCCCN)C(=O)N[C@H](C(=O)N[C@H](C(=O)N[C@@H](CC(=O)O)C(=O)O)[C@@H](C)O)[C@@H](C)CC
In the case of B5, in test [1], the “EC50 GLP-1 (nM); cAMP AlphaScreen” value came to 0.12 nM. Also, the “EC50 GLP-2 (nM); cAMP AlphaScreen” value in test [2] was 0.034 nM.

B6: Compound 18 (peptide)
peptide: H-H[Aib]EGTFTSELATILDEQAARDFIAWLISHKITD-OH
SMILES: CC[C@H](C)[C@H](NC(=O)[C@H](Cc1ccccc1)NC(=O)[C@H](CC(=O)O)NC(=O)[C@H](CCCNC(=N)N)NC(=O)[C@H](C)NC(=O)[C@H](C)NC(=O)[C@H](CCC(N)=O)NC(=O)[C@H](CCC(=O)O)NC(=O)[C@H](CC(=O)O)NC(=O)[C@H](CC(C)C)NC(=O)[C@@H](NC(=O)[C@@H](NC(=O)[C@H](C)NC(=O)[C@H](CC(C)C)NC(=O)[C@H](CCC(=O)O)NC(=O)[C@H](CO)NC(=O)[C@@H](NC(=O)[C@H](Cc1ccccc1)NC(=O)[C@@H](NC(=O)CNC(=O)[C@H](CCC(=O)O)NC(=O)C(C)(C)NC(=O)[C@@H](N)Cc1c[nH]cn1)[C@@H](C)O)[C@@H](C)O)[C@@H](C)O)[C@@H](C)CC)C(=O)N[C@@H](C)C(=O)N[C@@H](Cc1c[nH]c2ccccc12)C(=O)N[C@@H](CC(C)C)C(=O)N[C@H](C(=O)N[C@@H](CO)C(=O)N[C@@H](Cc1c[nH]cn1)C(=O)N[C@@H](CCCCN)C(=O)N[C@H](C(=O)N[C@H](C(=O)N[C@@H](CC(=O)O)C(=O)O)[C@@H](C)O)[C@@H](C)CC)[C@@H](C)CC
Take B6: the “EC50 GLP-1 (nM); cAMP AlphaScreen” value in test [1] came out at 0.006 nM. Further, in test [2], the “EC50 GLP-2 (nM); cAMP AlphaScreen” value is 0.054 nM.

B7: Compound 17 (peptide)
peptide: H-H[Aib]EGTFTSELATILDEQAARDFIAWLIRHKITD-OH
SMILES: CC[C@H](C)[C@H](NC(=O)[C@H](Cc1ccccc1)NC(=O)[C@H](CC(=O)O)NC(=O)[C@H](CCCNC(=N)N)NC(=O)[C@H](C)NC(=O)[C@H](C)NC(=O)[C@H](CCC(N)=O)NC(=O)[C@H](CCC(=O)O)NC(=O)[C@H](CC(=O)O)NC(=O)[C@H](CC(C)C)NC(=O)[C@@H](NC(=O)[C@@H](NC(=O)[C@H](C)NC(=O)[C@H](CC(C)C)NC(=O)[C@H](CCC(=O)O)NC(=O)[C@H](CO)NC(=O)[C@@H](NC(=O)[C@H](Cc1ccccc1)NC(=O)[C@@H](NC(=O)CNC(=O)[C@H](CCC(=O)O)NC(=O)C(C)(C)NC(=O)[C@@H](N)Cc1c[nH]cn1)[C@@H](C)O)[C@@H](C)O)[C@@H](C)O)[C@@H](C)CC)C(=O)N[C@@H](C)C(=O)N[C@@H](Cc1c[nH]c2ccccc12)C(=O)N[C@@H](CC(C)C)C(=O)N[C@H](C(=O)N[C@@H](CCCNC(=N)N)C(=O)N[C@@H](Cc1c[nH]cn1)C(=O)N[C@@H](CCCCN)C(=O)N[C@H](C(=O)N[C@H](C(=O)N[C@@H](CC(=O)O)C(=O)O)[C@@H](C)O)[C@@H](C)CC)[C@@H](C)CC
As to B7, in test [1], the “EC50 GLP-1 (nM); cAMP AlphaScreen” value amounted to 0.006 nM. Besides, the “EC50 GLP-2 (nM); cAMP AlphaScreen” value in test [2] came out at 0.066 nM.
